Results on one substance are retold here after paper doi:10.1101/2024.04.26.591336.

In the assay the target is NOTCH2^ΔERA-TurboID (human). The assay can be described thus: proximity labelling.

Substance “endogenous human NOTCH2 (from UniProt Q04721 26-2471) (natural protein)” displayed a Log2FC NICD2RA-vs-NICD2 of -2.03 Log2FC and a percent of the NOTCH2 recovered, NICD2RA against NICD2 of 13%.
